The data set concerns the molecule itself. Put plainly: SEC.

B1: Recombinant PCNA2 protein of Arabidopsis thaliana (AtPCNA2) (natural protein, UniProt Q9ZW35 1-264, looked up)
chain: MLELRLVQGSLLKKVLEAVKDLVNDANFDCSTTGFSLQAMDSSHVALVSLLLRSEGFEHYRCDRNLSMGMNLGNMSKMLKCAGNDDIITIKADDGSDTVTFMFESPTQDKIADFEMKLMDIDSEHLGIPDAEYHSIVRMPSGEFSRICKDLSSIGDTVVISVTKEGVKFSTAGDIGTANIVLRQNTTVDKPEDAIVIEMNEPVSLSFALRYMNSFTKATPLSETVTISLSSELPVVVEYKVAEMGYIRYYLAPKIEEEEDTKPE
As to B1, the binding result is recorded as “binds”.

The values above are taken from publication PMC2814116 (Journal of Experimental Botany, 2009).
